Values of other authors in US20220119510A1, “ANTI-POLYETHYLENE GLYCOL (PEG) ANTIBODY MOUSE MODEL FOR RIGOROUS ASSESSMENT OF PEG-BASED THERAPIES: ADJUVANT-FREE INDUCTION MODEL” (Northwestern University, priority 2020, published 2022).

Test system: rabbits

B1: PEGylated ovalbumin: PEGylated ovalbumin used to immunize rabbits (conjugate, UniProt P01012 2-386, looked up)
Ovalbumin: GSIGAASMEFCFDVFKELKVHHANENIFYCPIAIMSALAMVYLGAKDSTRTQINKVVRFDKLPGFGDSIEAQCGTSVNVHSSLRDILNQITKPNDVYSFSLASRLYAEERYPILPEYLQCVKELYRGGLEPINFQTAADQARELINSWVESQTNGIIRNVLQPSSVDSQTAMVLVNAIVFKGLWEKAFKDEDTQAMPFRVTEQESKPVQMMYQIGLFRVASMASEKMKILELPFASGTMSMLVLLPDEVSGLEQLESIINFEKLTEWTSSNVMEERKIKVYLPRMKMEEKYNLTSVLMAMGITDVFSSSANLSGISSAESLKISQAVHAAHAEINEAGREVVGSAEAGVDAASVSEEFRADHPFLFCIKHIATNAVLFFGRCVSP
modifications: PEGylated
notes: PEGylated ovalbumin used to immunize rabbits
  anti-PEG antibodies after immunization: anti-PEG antibodies were first observed
